B1: T86: Tat protein T86; full length tat protein is 86-101 aa (protein, UniProt P04608 1-86, looked up)
Protein Tat: MEPVDPRLEPWKHPGSQPKTACTNCYCKKCCFHCQVCFITKALGISYGRKKRRQRRRAHQNSQTHQASLSKQPTSQPRGDPTGPKE
B2: T66 (protein)
chain: MEPVDPRLEPWKHPGSQPKTACTNCYCKKCCFHCQVCFMTKALGISYGRKKRRQRRRAHQNSQTHQ
modifications: Human immunodeficiency virus 1
B3: T72: full length exon 1 Tat [1-72 aa], contains all domains essential for trans-activation (protein, UniProt P04608 1-72, looked up, fragment)
chain: MEPVDPRLEPWKHPGSQPKTACTNCYCKKCCFHCQVCFITKALGISYGRKKRRQRRRAHQNSQTHQASLSKQ

Tests used:
MT4-LTR-GFP cells = assay: Titration of tat protein variants on latent HIV LTR-GFP reporter cell line (flow cytometry); assay type: cell-based; parameters: unit not given here; settings: overnight
Method: MT4-LTR-GFP cells were incubated overnight with different Tat variants at the indicated concentration [μg/ml]. LTR activation was determined by flow cytometry.

HIV LTR [1] = assay: HIV LTR transactivation by Tat C-terminal deletion mutants (triple plasmid transfection, Dual-Glo luciferase); assay type: cell-based; settings: HEK293 cells, 24 h post transfection, full length Tat72 exon-1 set to 100%, mean (standard deviation)
Method: Activity is expressed in % with respect to the activity achieved by full length Tat72 exon-1 set to 100%. Shown data are mean values [n 4] with indicated (standard deviation).
Tat-mediated transactivation was determined by triple plasmid transfection of HEK293 cells with pEF-T, a Tat expression plasmid, LTR-FLuc, a HIV LTR-controlled firefly luciferase reporter plasmid and pEF1-RLuc, a EF1α promoter driven Renilla luciferase reporter plasmid. Luciferase reporter activities were assessed 24 h post transfection using the Dual-Glo luciferase assay [Promega]. The measured HIV LTR luciferase data were normalized by Renilla luciferase data retrieved from the pEF1-RLuc plasmid. LTR activity is expressed as percentage of wild type exon-1 Tat72 activity.

latent HIV = assay: Ex vivo activation of latent HIV from primary CD4+ T cells of HIV-infected individuals (gag RNA QPCR); assay type: cell-based, HIV-1; settings: for % Activity (PHA): PHA set to 100%; for % Activity (PMA): PMA set to 100%
Method: Activation of latent HIV from primary CD4^+ T cells by overnight incubation with different Tat proteins. Indicated numbers represent HIV activation in percentage to reference compounds PMA and PHA set to 100%. The shown % increase compared to PMA/PHA is statistically significant (p<0.01).
CD4^+ T cells were isolated from 200 ml whole blood using CD4 microbeads (Miltenyi Biotec) according to manufacturer's protocol. Blood originates from HIV-infected individuals under long-term HAART with undetectable plasma virus. Ten to twenty replicates of cell pools plated at 1×10^6 CD4^+ T cells/well were incubated overnight with compounds or mock controls (DMSO/PBS). Total RNA was isolated from each replicate using the Magmax 96 Total RNA isolation kit (Ambion) following the manufacturer's protocol. Duplicate cDNA reactions were performed on each RNA replicate using SuperScript III First-Strand Synthesis kit (Invitrogen) according to the manufacturer's protocol. Quantitative real-time PCR (QPCR) was conducted on each cDNA applying gag-specific primers and the nucleic acid detection dye Sybr Green I [Invitrogen]. Standard curves were generated using cDNA synthesized from in vitro transcribed RNA. The detection limit of the QPCR assay was determined to be within 1-10 copies/reaction. Cycle threshold (ct) values 40 were excluded from the analysis. The Wilcoxon rank sum test was used to calculate the statistical significance of the relative HIV-1 gag RNA copy number between different conditions.

HIV LTR [2] = assay: HIV LTR activation by T66 fusion proteins (triple plasmid transfection of HEK293 cells, Dual-Glo luciferase); assay type: cell-based
Method: Triple plasmid transfection of HEK293 cells with pEF-T (Tat expression plasmid), LTR-FLuc (HIV LTR-controlled firefly luciferase reporter plasmid) and pEF1-RLuc (EF1α promoter driven Renilla luciferase reporter plasmid). Luciferase reporter activities were assessed 24 h post transfection using the Dual-Glo luciferase assay [Promega]. The measured HIV LTR luciferase data were normalized by Renilla luciferase data collected from the co-transfected pEF1-RLuc signal. LTR activation is either expressed as fold increase over cell control or as percentage of T66 activity.

Molecule	LTR activation (MT4-LTR-GFP cells; Tat 30 μg/ml)	LTR activation (MT4-LTR-GFP cells; Tat 40 μg/ml)	LTR activation (MT4-LTR-GFP cells; Tat 50 μg/ml)	LTR activation (MT4-LTR-GFP cells; Tat 60 μg/ml)	LTR activation (MT4-LTR-GFP cells; Tat 70 μg/ml)	LTR activation (MT4-LTR-GFP cells; Tat 80 μg/ml)	LTR activation (MT4-LTR-GFP cells; Tat 100 μg/ml)	% Tat72 activity (HIV LTR [1])	% Activity (PHA) (latent HIV; Donor 1, overnight incubation)	% Activity (PMA) (latent HIV; Donor 1, overnight incubation)	% Activity (PHA) (latent HIV; Donor 3, overnight incubation)	% Activity (PMA) (latent HIV; Donor 3, overnight incubation)	% Activity (PHA) (latent HIV; Donor 5, overnight incubation)	% Activity (PHA) (latent HIV; Donor 4, overnight incubation)	also measured
T60: first 60 N-terminal amino acids of wild-type tat, SEQ ID No 2 (MEPVDPRLEPWKHPGSQPKTACTNCYCKKCCFHCQVCFMTKALGISYGRKKRRQRRRAHQ; Human immunodeficiency virus 1) [Tat T60]	28.5	33.4	87.0	92.1	95.2	95.8	93.3	77.2 (±10.8) %	328%	405%	196%	213%	ND/254%		
1-57: first 57 N-terminal amino acids of wild-type tat, SEQ ID No 1; minimal reactivation domain (MEPVDPRLEPWKHPGSQPKTACTNCYCKKCCFHCQVCFMTKALGISYGRKKRRQRRR; Human immunodeficiency virus 1) [Tat 1-57]								40.2 (±2.3) %							
B1													ND/408%	ND/436%	
B2	45.7	53.8	87.0	88.7	87.6	93.9	94.5	92.2 (±12.7) %	680%	838%	487%	530%	ND/636%	ND/479%	RLUC (HIV LTR [2]; EF1α promoter driven Renilla luciferase (normalisation signal), HEK293, 24 h post transfection): 267; FLUC (HIV LTR [2]; HIV LTR-controlled firefly luciferase, HEK293, 24 h post transfection): 15437; FLUCnorm (HIV LTR [2]; firefly luciferase normalized by Renilla luciferase): 37049; Fold (HIV LTR [2]; fold increase over cell control): 26; % T66 (HIV LTR [2]; percentage of T66 activity): 100%; % Activity (PHA) (latent HIV; Donor 2, overnight incubation): 986%; HIV activation ex vivo compared with reference compounds (latent HIV; patient-derived latently infected CD4 cells, versus PHA, PMA and SAHA): exceeded by far the reactivation achieved by reference compounds
B3	18.6	47.2	60.4	76.3	88.8	93.8	93.7								
